Measured values from patent EP4328239A1 (dated 2024).
Changes are numbered by the printed parent chain.

Assays:
[1] = target: T1, MAGEA1 peptide on HLA-A*03:01 (human); assay: cytokine release
T1 peptide: SLFRAVITKK

[2] = target: T2, MAGEA1 peptide on HLA-A*03:01 (human); assay: cytokine release
T2 peptide: LFRAVITKK

[3] = target: T3, MAGEA1 peptide on HLA-A*03:01 (human); assay: cytokine release
T3 peptide: ESLFRAVITK

[4] = target: T4, MAGEA1 peptide on HLA-A*26:01 (human); assay: cytokine release
T4 peptide: EVYDGREHSA

[5] = target: T5, MAGEA1 peptide on HLA-B*07:02 (human); assay: cytokine release
T5 peptide: ARVRFFFPSL

[6] = target: T6, MAGEA1 peptide on HLA-B*07:02 (human); assay: cytokine release
T6 peptide: RVRFFFPSLR

[7] = target: T7, MAGEA1 peptide on HLA-A*29:02 (human); assay: cytokine release
T7 peptide: DLVGFLLLKY

[8] = target: T8, MAGEA1 peptide on HLA-A*29:02 (human); assay: cytokine release
T8 peptide: LVGFLLLKY

[9] = target: T9, MAGEA1 peptide on HLA-B*44:03 (human); assay: killing
T9 peptide: EEGPSTSCI

[10] = target: T10, MAGEA1 peptide on HLA-B*07:02 (human); assay: luciferase kill assay, 18 h; TCR-transduced CD8+ T cells against K562-HLA-B0702-MAGE-A1, cells that express the antigen (full-length MAGEA1); full-length, on cells
T10 peptide: RVRFFFPSL

[11] = target: T11, MAGEA1 peptide on HLA-B*57:03 (human); assay: cytokine release
T11 peptide: VADLVGFLL

[12] = target: T12, MAGEA1 peptide on HLA-B*57:03 (human); assay: cytokine release
T12 peptide: KVADLVGFL

[13] = target: T13, MAGEA1 peptide on HLA-B*44:03 (human); assay: killing
T13 peptide: KVADLVGFLL

[14] = target: T14, MAGEA1 peptide on HLA-B*44:03 (human); assay: cytokine release
T14 peptide: VADLVGFLL

[15] = target: T15, MAGEA1 peptide on HLA-B*44:03 (human); assay: cytokine release
T15 peptide: ADLVGFLLLK

[16] = target: T16, MAGEA1 peptide on HLA-B*44:03 (human); assay: luciferase kill assay, 18 h; TCR-transduced CD8+ T cells against K562-HLA-B4403-MAGE-A1, cells that express the antigen (full-length MAGEA1); two donors; full-length, on cells
T16 peptide: LAETSYVKVL

[17] = target: T17, MAGEA1 peptide on HLA-B*44:03 (human); assay: cytokine release
T17 peptide: AETSYVKVLE

[18] = target: T18, MAGEA1 peptide on HLA-B*44:03 (human); assay: cytokine release
T18 peptide: AETSYVKVL

[19] = target: T19, MAGEA1 peptide on HLA-B*44:03 (human); assay: cytokine release
T19 peptide: ALAETSYVKV

[20] = target: T20, MAGEA1 peptide on HLA-A*02:01 (human); assay: cytokine release
T20 peptide: KVLEYVIKVS

[21] = target: T21, MAGEA1 peptide on HLA-A*02:01 (human); assay: cytokine release
T21 peptide: VKVLEYVIKV

[22] = target: T22, MAGEA1 peptide on HLA-A*02:01 (human); assay: luciferase kill assay, 18 h; TCR-transduced CD8+ T cells against K562-HLA-A0201-MAGE-A1, cells that express the antigen (full-length MAGEA1); full-length, on cells
T22 peptide: KVLEYVIKV

B1: TCR22 (TCR, V domains shown)
Valpha: SQQGEEDPQALSIQEGENATMNCSYKTSINNLQWYRQNSGRGLVHLILIRSNEREKHSGRLRVTLDTSKKSSSLLITASRAADTASYFCATDEGGAQKLVFGQGTRLTINP
Vbeta: DVKVTQSSRYLVKRTGEKVFLECVQDMDHENMFWYRQDPGLGLRLIYFSYDVKMKEKGDIPEGYSVSREKKERFSLILESASTNQTSMYLCATVGRGEDRGEQFFGPGTRLTVL
binding result [1]: recognises
binding result [2]: recognises
binding result [3]: recognises

B2: TCR24 (TCR, V domains shown)
Valpha: KNQVEQSPQSLIILEGKNCTLQCNYTVSPFSNLRWYKQDTGRGPVSLTIMTFSENTKSNGRYTATLDADTKQSSLHITASQLSDSASYICVVSNNAGNMLTFGGGTRLMVKP
Vbeta: DAMVIQNPRYQVTQFGKPVTLSCSQTLNHNVMYWYQQKSSQAPKLLFHYYDKDFNNEADTPDNFQSRRPNTSFCFLDIRSPGLGDTAMYLCATSRESLGRDEQFFGPGTRLTVL
binding result [1]: recognises
binding result [2]: recognises
binding result [3]: recognises

B3: TCR2 (TCR, V domains shown)
Valpha: AQKITQTQPGMFVQEKEAVTLDCTYDTSDPSYGLFWYKQPSSGEMIFLIYQGSYDQQNATEGRYSLNFQKARKSANLVISASQLGDSAMYFCASREGSARQLTFGSGTQLTVLP
Vbeta: DVKVTQSSRYLVKRTGEKVFLECVQDMDHENMFWYRQDPGLGLRLIYFSYDVKMKEKGDIPEGYSVSREKKERFSLILESASTNQTSMYLCASDSADTQYFGPGTRLTVL
binding result [4]: recognises

B4: TCR23 (TCR, V domains shown)
Valpha: AQKVTQAQTEISVVEKEDVTLDCVYETRDTTYYLFWYKQPPSGELVFLIRRNSFDEQNEISGRYSWNFQKSTSSFNFTITASQVVDSAVYFCALSVTYTGNQFYFGTGTSLTVIP
Vbeta: DSGVTQTPKHLITATGQRVTLRCSPRSGDLSVYWYQQSLDQGLQFLIQYYNGEERAKGNILERFSAQQFPDLHSELNLSSLELGDSALYFCASSVQGQGTDTQYFGPGTRLTVL
binding result [5]: recognises
binding result [6]: recognises

B5: TCR4 (TCR, V domains shown)
Valpha: AQSVTQLGSHVSVSEGALVLLRCNYSSSVPPYLFWYVQYPNQGLQLLLKYTSAATLVKGINGFEAEFKKSETSFHLTKPSAHMSDAAEYFCAVSNSGNTPLVFGKGTRLSVIA
Vbeta: AAGVIQSPRHLIKEKRETATLKCYPIPRHDTVYWYQQGPGQDPQFLISFYEKMQSDKGSIPDRFSAQQFSDYHSELNMSSLELGDSALYFCASSSTTGDGYTFGSGTRLTVV
binding result [7]: recognises
binding result [8]: recognises

B6: TCR8 (TCR, V domains shown)
Valpha: GQNIDQPTEMTATEGAIVQINCTYQTSGFNGLFWYQQHAGEAPTFLSYNVLDGLEEKGRFSSFLSRSKGYSYLLLKELQMKDSASYLCAPSSNTGKLIFGQGTTLQVKP
Vbeta: DAGVIQSPRHEVTEMGQEVTLRCKPISGHNSLFWYRQTMMRGLELLIYFNNNVPIDDSGMPEDRFSAKMPNASFSTLKIQPSEPRDSAVYFCASSLPQETQYFGPGTRLLVL
binding result [9]: recognises

B7: TCR18.2 (TCR, V domains shown)
Valpha: GQQVMQIPQYQHVQEGEDFTTYCNSSTTLSNIQWYKQRPGGHPVFLIQLVKSGEVKKQKRLTFQFGEAKKNSSLHITATQTTDVGTYFCANRDNYGQNFVFGPGTRLSVLP
Vbeta: EAQVTQNPRYLITVTGKKLTVTCSQNMNHEYMSWYRQDPGLGLRQIYYSMNVEVTDKGDVPEGYKVSRKEKRNFPLILESPSPNQTSLYFCASTRTGTLPEAFFGQGTRLTVV
EC50 killing capacity (E:T ratio at which 50% of target cells were killed) [10]: 20 E:T ratio
binding result [5]: recognises
binding result [6]: recognises

B8: TCR18.1 (TCR, V domains shown)
Valpha: B7 Valpha
Vbeta: EAQVTQNPRYLITVTGKKLTVTCSQNMNHEYMSWYRQDPGLGLRQIYYSMNVEVTDKGDVPEGYKVSRKEKRNFPLILESPSPNQTSLYFCASSRTSGISYEQYFGPGTRLTVT
binding result [5]: recognises
binding result [6]: recognises

B9: TCR1 (TCR, V domains shown)
Valpha: GNSVTQMEGPVTLSEEAFLTINCTYTATGYPSLFWYVQYPGEGLQLLLKATKADDKGSNKGFEATYRKETTSFHLEKGSVQVSDSAVYFCALSGGGSYIPTFGRGTSLIVHP
Vbeta: EAGVAQSPRYKIIEKRQSVAFWCNPISGHATLYWYQQILGQGPKLLIQFQNNGVVDDSQLPKDRFSAERLKGVDSTLKIQPAKLEDSAVYLCASSSPGQLNTEAFFGQGTRLTVV
binding result [11]: recognises
binding result [12]: recognises

B10: TCR19 (TCR, V domains shown)
Valpha: AQTVTQSQPEMSVQEAETVTLSCTYDTSENNYYLFWYKQPPSRQMILVIRQEAYKQQNATENRFSVNFQKAAKSFSLKISDSQLGDTAMYFCAFISGYSTLTFGKGTMLLVSP
Vbeta: B8 Vbeta with S94R, R95T, T96S, S97H, G98P, I99Q, S100T
binding result [5]: recognises
binding result [6]: recognises

B11: TCR6 (TCR, V domains shown)
Valpha: QKEVEQNSGPLSVPEGAIASLNCTYSDRGSQSFFWYRQYSGKSPELIMFIYSNGDKEDGRFTAQLNKASQYVSLLIRDSQPSDSATYLCAVSSNTGKLIFGQGTTLQVKP
Vbeta: DAGVIQSPRHEVTEMGQEVTLRCKPISGHNSLFWYRQTMMRGLELLIYFNNNVPIDDSGMPEDRFSAKMPNASFSTLKIQPSEPRDSAVYFCASKWGQGAGDTQYFGPGTRLTVL
binding result [13]: recognises
binding result [14]: recognises
binding result [15]: recognises

B12: TCR5 (TCR, V domains shown)
Valpha: GQQLNQSPQSMFIQEGEDVSMNCTSSSIFNTWLWYKQEPGEGPVLLIALYKAGELTSNGRLTAQFGITRKDSFLNISASIPSDVGIYFCAGLRDNYGQNFVFGPGTRLSVLP
Vbeta: DGGITQSPKYLFRKEGQNVTLSCEQNLNHDAMYWYRQDPGQGLRLIYYSQIVNDFQKGDIAEGYSVSREKKESFPLTVTSAQKNPTAFYLCASRVGGFEGYTFGSGTRLTVV
EC50 killing capacity (E:T ratio at which 50% of target cells were killed) [16]: 0.4 E:T ratio
binding result [17]: recognises
binding result [18]: recognises
binding result [19]: recognises

B13: TCR20 (TCR, V domains shown)
Valpha: QKEVEQNSGPLSVPEGAIASLNCTYSDRGSQSFFWYRQYSGKSPELIMFIYSNGDKEDGRFTAQLNKASQYVSLLIRDSQPSDSATYLCAVNAPRPGYSTLTFGKGTMLLVSP
Vbeta: DVKVTQSSRYLVKRTGEKVFLECVQDMDHENMFWYRQDPGLGLRLIYFSYDVKMKEKGDIPEGYSVSREKKERFSLILESASTNQTSMYLCASSLSMNTEAFFGQGTRLTVV
binding result [20]: recognises
binding result [21]: recognises
EC50 killing capacity (E:T ratio at which 50% of target cells were killed) [22]: 0.8 E:T ratio
